This assay has as its target dynein-dynactin complex (pig brain dynein with pig brain dynactin) (pig (endogenous in pig brain)) (UniProt F2Z5G5). The assay can be described thus: negative-stain EM.

As a reminder, the Kd is the free concentration of one partner at which half of the binding sites on the other are occupied at equilibrium, for simple one-to-one binding. A higher Kd goes with weaker binding. For the substance “full-length BicdR1 (from UniProt A0JNT9 1-577) (natural protein)”, the dissociation constant Kd worked out at 5.11 µM.

(Values after publication PMC11722432.)
